The target in test [1] is HSV-1 glycoprotein E (HSV-1) (UniProt P04488). Nature of the test: co-IP; lysates of 293 cells infected with adenovirus expressing gE (48 h) or with HSV-1; IP with anti-gE Ab; western blot for Anx-A1; band ratio Anx-A1/gE. A general note: In western blotting, separated proteins are transferred to a membrane and probed.
The target in test [2] is HSV-1 gE expressed from recombinant adenovirus (HSV-1) (UniProt P04488). Described as above.

B1: annexin A1 (natural protein)
chain: MAMVSEFLKQAWFIENEEQEYVQTVKSSKGGPGSAVSPYPTFNPSSDVAALHKAIMVKGVDEATIIDILTKRNNAQRQQIKAAYLQETGKPLDETLKKALTGHLEEVVLALLKTPAQFDADELRAAMKGLGTDEDTLIEILASRTNKEIRDINRVYREELKRDLAKDITSDTSGDFRNALLSLAKGDRSEDFGVNEDLADSDARALYEAGERRKGTDVNVFNTILTTRSYPQLRRVFQKYTKYSKHDMNKVLDLELKGDIEKCLTAIVKCATSKPAFFAEKLHQAMKGVGTRHKALIRIMVSRSEIDMNDIKAFYQKMYGISLCQAILDETKGDYEKILVALCGGN
Regarding B1, the Anx-A1/gE ratio in the co-precipitate in test [1] stood at 0.51; in test [2], 0.44.

The values are drawn from PMC9359538.
